The results in this text go back to US20250313638A1 (KISOJI BIOTECHNOLOGY, published 2025).

Where two headings read alike, the source gives them in different places.

Assay [1] addresses T1, recombinant human CD47 protein (human, UniProt Q08722 19-139).
T1 construct: Bought (Cedarlane Cat. No. 12283-H08H-200); also called human recombinant CD47 protein; CD47 recombinant protein
The assay is described as follows: ELISA: recombinant human CD47 coated on the plate, chemiluminescence. On the technique in general: An ELISA detects its analyte on a solid surface through an enzyme-linked reagent.

Assay [2] concerns the target T2, recombinant cynomolgus CD47 protein (cynomolgus monkey, UniProt A0A5F8AK49 19-139 (rhesus entry)).
T2 construct: also called cynomolgus monkey CD47 recombinant protein
Kind of assay: ELISA: recombinant cynomolgus CD47 coated on the plate, chemiluminescence.

For assay [3], the target named is T3, recombinant human PD-1 protein (human, UniProt Q15116 25-167).
T3 construct: Bought (Cedarlane Cat. No. HPLC-10377-H08H-100); also called human recombinant PD1 protein; PD-1 recombinant protein
T3 sequence (Q15116 25-167 limits assumed): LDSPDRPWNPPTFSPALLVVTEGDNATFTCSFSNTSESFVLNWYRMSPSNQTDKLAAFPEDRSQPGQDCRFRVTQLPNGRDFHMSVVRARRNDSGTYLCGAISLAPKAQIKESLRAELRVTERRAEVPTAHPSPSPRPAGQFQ
Kind of assay: ELISA: recombinant human PD-1 coated on the plate, anti-human-Fc-HRP, chemiluminescence. The procedure: (§1) Briefly, recombinant proteins were coated on 96-well plates. Plates were covered and left at 4° C. overnight. The next day, plates were washed once with PBS and blocked with blocking buffer for 1 hour at room temperature. Binding agents were tested at the indicated concentration (357 nM starting concentration, followed by 12 one in four serial dilutions for FIG. 9B lower panel), diluted in the blocking buffer, and incubated for 1 hour at 37° C. After incubation, plates were washed three times with washing buffer. Plates were incubated with anti-human-Fc-HRP (Sigma-Aldrich, Cat. No. AP113P) diluted at 1:5000 for 1 hour at room temperature, then washed three times with PBS-T washing buffer. The signal was developed with SuperSignal™ ELISA Pico Chemiluminescent Substrate (Thermofisher, Cat. No. 37069). The plates were read on a SpectraMax™ i3x Multi-Mode Microplate Reader (Molecular Devices).

Assay [4] deals with T4, human CD47 on cells (HEK293T cells, human blood cells, primary human T cells) (human, UniProt Q08722 19-323).
T4 construct: Endogenous CD47 of human cells; For blood cells and T cells it is inferred from the specificity of the anti-CD47 module
Kind of assay: flow cytometry on primary human T cells.

For assay [5], the target named is T5, human PD-1 on CHO-PD1 cells (human, UniProt Q15116 25-288).
T5 construct: also called CHO-PD-1 cell line
T5 sequence (Q15116 25-288 limits assumed): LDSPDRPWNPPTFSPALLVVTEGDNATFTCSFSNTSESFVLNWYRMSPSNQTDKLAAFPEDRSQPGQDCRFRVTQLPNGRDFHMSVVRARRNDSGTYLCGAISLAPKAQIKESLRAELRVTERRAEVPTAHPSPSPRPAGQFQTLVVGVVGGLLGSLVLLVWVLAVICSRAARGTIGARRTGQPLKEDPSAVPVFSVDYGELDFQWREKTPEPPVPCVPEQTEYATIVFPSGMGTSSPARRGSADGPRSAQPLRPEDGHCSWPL
Kind of assay: flow cytometry on CHO-PD1 cells, APC anti-human-Fc secondary antibody. For orientation: A flow cytometer gives signals particle by particle.

For assay [6], the target named is T3, recombinant human PD-1 protein. Kind of assay: ELISA: recombinant human PD-1 coated on the plate, anti-human-Fc-HRP, chemiluminescence. The procedure: as §1
The source holds these as a separate data set.

Assay [7] deals with T6, recombinant cynomolgus monkey PD-1 protein (cynomolgus monkey, UniProt B0LAJ3 25-170).
T6 construct: also called cynomolgus monkey recombinant PD1 protein
T6 sequence (B0LAJ3 entry or part of it limits assumed): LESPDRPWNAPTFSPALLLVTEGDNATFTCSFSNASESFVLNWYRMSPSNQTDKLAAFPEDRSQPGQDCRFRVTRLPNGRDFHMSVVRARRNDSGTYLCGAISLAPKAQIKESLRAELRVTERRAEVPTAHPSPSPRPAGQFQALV
Kind of assay: ELISA: recombinant cynomolgus PD-1 coated on the plate, anti-human-Fc-HRP, chemiluminescence. The method, then: as §1

In assay [8] the target is PD-1 on the Jurkat effector cells of the PD-1/PD-L1 blockade bioassay (UniProt Q15116 25-288, limits assumed). The assay is described as follows: cell-based or functional assay.
Chain of PD-1 on the Jurkat effector cells of the PD-1/PD-L1 blockade bioassay (Q15116 25-288 limits assumed): as the sequence (Q15116 25-288 limits assumed) above
The target of another assay is T7, BSA.
T7 construct: also called control protein (BSA)
T7 sequence (chain, as listed by the source limits assumed): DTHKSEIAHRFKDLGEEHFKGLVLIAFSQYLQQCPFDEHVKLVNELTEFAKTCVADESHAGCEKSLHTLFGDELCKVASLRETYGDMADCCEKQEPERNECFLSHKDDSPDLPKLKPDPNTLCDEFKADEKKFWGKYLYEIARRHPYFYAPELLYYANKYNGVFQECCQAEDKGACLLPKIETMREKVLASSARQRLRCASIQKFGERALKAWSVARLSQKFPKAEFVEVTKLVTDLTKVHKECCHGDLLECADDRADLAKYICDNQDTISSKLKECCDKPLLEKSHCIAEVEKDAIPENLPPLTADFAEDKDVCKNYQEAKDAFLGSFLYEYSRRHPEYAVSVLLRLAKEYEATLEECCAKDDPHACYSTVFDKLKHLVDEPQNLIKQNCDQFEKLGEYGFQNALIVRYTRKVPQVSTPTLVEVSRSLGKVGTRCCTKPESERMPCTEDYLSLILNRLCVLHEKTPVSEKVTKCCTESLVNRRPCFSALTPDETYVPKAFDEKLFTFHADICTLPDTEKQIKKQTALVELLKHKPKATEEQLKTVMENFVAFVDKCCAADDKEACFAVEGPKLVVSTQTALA
Kind of assay: ELISA: BSA coated on the plate, anti-human-Fc-HRP, chemiluminescence. The method, then: as §1

The target of assay [9] is T8, recombinant rat PD-1 protein (rat, UniProt D3ZIN8 25-169).
T8 construct: also called rat recombinant PD1 protein
T8 sequence: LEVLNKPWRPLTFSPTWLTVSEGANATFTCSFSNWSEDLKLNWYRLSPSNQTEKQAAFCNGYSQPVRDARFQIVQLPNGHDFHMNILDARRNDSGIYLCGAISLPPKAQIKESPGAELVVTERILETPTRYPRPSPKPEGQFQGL
Kind of assay: ELISA: recombinant rat PD-1 coated on the plate, anti-human-Fc-HRP, chemiluminescence. The procedure:
as §1

Assay [10] addresses T3, recombinant human PD-1 protein. The assay is described as follows: ELISA: recombinant human PD-1 coated on the plate, anti-human-Fc-HRP, chemiluminescence. The method, then: as §1
This is another data set of the same source.

B1: monoclonal anti-CD47 antibody clone B6H12 (antibody)
chain: EVQLVESGGDLVKPGGSLKLSCAASGFTFSGYGMSWVRQTPDKRLEWVATITSGGTYTYYPDSVKGRFTISRDNAKNTLYLQIDSLKSEDTAIYFCARSLAGNAMDYWGQGTSVTVSSGGGGSGGGGSGGGGSDIVMTQSPATLSVTPGDRVSLSCRASQTISDYLHWYQQKSHESPRLLIKFASQSISGIPSRFSGSGSGSDFTLSINSVEPEDVGVYYCQNGHGFPRTFGGGTKLEIK
Usually EC50 (read off the curve) stands for the midpoint of the concentration-response curve. In the case of B1, the “EC50 (read off the curve)” value in assay [1] was roughly 500 pM; in [2] it was roughly 100 pM.

B2: KC067 (Fc fusion)
chain: QVQLVESGGGSVQAGGSLRLSCAASGSTDSIEYMTWFRQAPGKAREGVAALYTHTGNTYYTDSVKGRFTISQDKAKNMAYLRMDSVKSEDTAIYTCGATRKYVPVRFALDQSSYDYWGQGTQVTVSSEPKSCDKTHTCPPCPAPELLGGPSVFLFPPKPKDTLMISRTPEVTCVVVDVSHEDPEVKFNWYVDGVEVHNAKTKPREEQYNSTYRVVSVLTVLHQDWLNGKEYKCKVSNKALPAPIEKTISKAKGQPREPQVYTLPPSREQMTKNQVSLTCLVKGFYPSDIAVEWESNGQPENNYKTTPPVLNSDGSFFLYSKLTVDKSRWQQGNVFSCSVMHEALHNHYTQESLSLSPGKAPAPAPAPAPKAQVQLQESGGGLVQPGGSLRLSCAASGFTFSNYGMSWVRQAPGEGLEWVSSIDSTGGTTRYADSVKGRFTISRDNAKNALYLQMNSLKPEDTAVYYCAKDFLSWMPRGQGTQVTVSSGGGGSGGGGSGGGGSQVQLVESGGGSVQAGGSLRLSCAASGSTDSIEYMTWFRQAPGKAREGVAALYTHTGNTYYTDSVKGRFTISQDKAKNMAYLRMDSVKSEDTAIYTCGATRKYVPVRFALDQSSYDYWGQGTQVTVSS
notes: the ranges are mine
For B2, the “EC50 (read off the curve)” value in [3] is roughly 500 pM.

B3: KC035 (Fc fusion)
chain: QVQLVESGGGSVQAGGSLRLSCAASGSTDSIEYMTWFRQAPGKAREGVAALYTHTGNTYYTDSVKGRFTISQDKAKNMAYLRMDSVKSEDTAIYTCGATRKYVPVRFALDQSSYDYWGQGTQVTVSSEPKSCDKTHTCPPCPAPELLGGPSVFLFPPKPKDTLMISRTPEVTCVVVDVSHEDPEVKFNWYVDGVEVHNAKTKPREEQYNSTYRVVSVLTVLHQDWLNGKEYKCKVSNKALPAPIEKTISKAKGQPREPQVYTLPPSREQMTKNQVSLTCLVKGFYPSDIAVEWESNGQPENNYKTTPPVLNSDGSFFLYSKLTVDKSRWQQGNVFSCSVMHEALHNHYTQESLSLSPGKAPAPAPAPAPKAQVQLVESGGGSVQAGGSLRLSCAASGSTDSIEYMTWFRQAPGKAREGVAALYTHTGNTYYTDSVKGRFTISQDKAKNMAYLRMDSVKSEDTAIYTCGATRKYVPVRFALDQSSYDYWGQGTQVTVSSGGGGSGGGGSGGGGSQVQLVESGGGSVQAGGSLRLSCAASGSTDSIEYMTWFRQAPGKAREGVAALYTHTGNTYYTDSVKGRFTISQDKAKNMAYLRMDSVKSEDTAIYTCGATRKYVPVRFALDQSSYDYWGQGTQVTVSS
notes: Three anti-HEWL VHHs on an Fc; May comprise a His-tag or not; also called negative control
As to B3, the binding result in assay [4] was “no binding (tested: 350 nM)”; in assay [5], “no binding”; in assay [6], “no binding (tested: about 700 nM)”; in [7] it was “no binding (tested: about 700 nM)”.

B4: KC034 (Fc fusion)
VHH-hinge-CH2-CH3-linker-VHH-linker-VHH polypeptide chain: QVQLVESGGGSVQAGGSLRLSCAASGSTDSIEYMTWFRQAPGKAREGVAALYTHTGNTYYTDSVKGRFTISQDKAKNMAYLRMDSVKSEDTAIYTCGATRKYVPVRFALDQSSYDYWGQGTQVTVSSEPKSCDKTHTCPPCPAPELLGGPSVFLFPPKPKDTLMISRTPEVTCVVVDVSHEDPEVKFNWYVDGVEVHNAKTKPREEQYNSTYRVVSVLTVLHQDWLNGKEYKCKVSNKALPAPIEKTISKAKGQPREPQVYTLPPSREQMTKNQVSLTCLVKGFYPSDIAVEWESNGQPENNYKTTPPVLNSDGSFFLYSKLTVDKSRWQQGNVFSCSVMHEALHNHYTQESLSLSPGKAPAPAPAPAPKAQVQLVESGGGSVQAGGSLRLSCAASGSTDSIEYMTWFRQAPGKAREGVAALYTHTGNTYYTDSVKGRFTISQDKAKNMAYLRMDSVKSEDTAIYTCGATRKYVPVRFALDQSSYDYWGQGTQVTVSSGGGGSGGGGSGGGGSEVQLVESGGGLVQPGGSLRLSCAASGDIYKSFDMGWYRQAPGKQRDLVAVIGSRGNNRGRTNYADSVKGRFTISRDGTGNTVYLLMNKLRPEDTAIYYCNTAPLVAGRPWGRGTLVTVSS
notes: also called (HEWL)
For B4, the binding result in assay [4] is recorded as “no binding (tested: 350 nM)”.

B5: KC036 (Fc fusion)
chain: QVQLVESGGGSVQAGGSLRLSCAASGSTDSIEYMTWFRQAPGKAREGVAALYTHTGNTYYTDSVKGRFTISQDKAKNMAYLRMDSVKSEDTAIYTCGATRKYVPVRFALDQSSYDYWGQGTQVTVSSEPKSCDKTHTCPPCPAPELLGGPSVFLFPPKPKDTLMISRTPEVTCVVVDVSHEDPEVKFNWYVDGVEVHNAKTKPREEQYNSTYRVVSVLTVLHQDWLNGKEYKCKVSNKALPAPIEKTISKAKGQPREPQVYTLPPSREQMTKNQVSLTCLVKGFYPSDIAVEWESNGQPENNYKTTPPVLNSDGSFFLYSKLTVDKSRWQQGNVFSCSVMHEALHNHYTQESLSLSPGKAPAPAPAPAPKAQVQLQESGGGWVQPGGSLRLSCVASGFTFSRSSMSWHRQAPGKERDLVAIISSSGIITHYSDSVKGRFTISRDNAKDTVYLQMNSLKPEDTAVYVCNAVLDDDSGDYWGQGTQVTVSSGGGGSGGGGSGGGGSQVQLVESGGGSVQAGGSLRLSCAASGSTDSIEYMTWFRQAPGKAREGVAALYTHTGNTYYTDSVKGRFTISQDKAKNMAYLRMDSVKSEDTAIYTCGATRKYVPVRFALDQSSYDYWGQGTQVTVSS
notes: May comprise a His-tag or not; also called (HEWL)
Take B5: the “EC50 (read off the curve), PD-1/PD-L1 blockade NFAT-luciferase reporter” value in assay [8] was roughly 2000 pM. In addition, the binding result in the assay with BSA is on record as “no binding (tested: about 700 nM)”. In addition, the “EC50 (read off the curve)” value was roughly 100 pM in [9]; roughly 100 pM in [6]; roughly 100 pM in assay [7]; roughly 200 pM in assay [10]; roughly 200 pM in assay [3].
